Data set [1] deals with T1, pancreatic lipase (Sus scrofa, UniProt P00591).
T1 sequence (P00591 1-450): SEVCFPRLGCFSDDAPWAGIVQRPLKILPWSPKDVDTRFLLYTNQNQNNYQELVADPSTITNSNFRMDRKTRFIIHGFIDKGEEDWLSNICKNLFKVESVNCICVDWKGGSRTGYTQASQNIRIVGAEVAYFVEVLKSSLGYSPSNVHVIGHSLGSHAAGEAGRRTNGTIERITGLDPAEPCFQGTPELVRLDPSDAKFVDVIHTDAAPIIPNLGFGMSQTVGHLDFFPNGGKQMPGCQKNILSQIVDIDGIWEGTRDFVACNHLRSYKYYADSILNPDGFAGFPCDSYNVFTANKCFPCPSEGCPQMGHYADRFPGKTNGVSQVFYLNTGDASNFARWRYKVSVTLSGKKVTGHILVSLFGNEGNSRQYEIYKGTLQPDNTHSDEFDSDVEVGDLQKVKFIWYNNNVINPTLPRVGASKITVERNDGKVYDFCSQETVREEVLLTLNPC
Description: 4-NPB hydrolysis assay. It is filed as biochemical.

Substrate in data set [2]: CCCC(=O)Oc1ccc([N+](=O)[O-])cc1
Description: Michaelis-Menten kinetics. In kind it is biochemical, Sus scrofa.

The values that follow come from PMC5228287 (Food chemistry, 2016).

Where only a bound is given, the exact number is not on record here.

As usually defined, the IC50 is the concentration that inhibits the measured activity by half. As for `O=c1c(O)cc([C@H]2Oc3cc(O)cc(O)c3C[C@H]2O)cc2c([C@H]3Oc4cc(O)cc(O)c4C[C@H]3O)cc(O)c(O)c12` [TF, Theaflavin], in data set [1], the IC50 was > 10 µM.

B1: pancreatic lipase (Sus scrofa) (protein)
chain: T1 sequence (P00591 1-450)
As a reminder, the Km is the concentration of substrate that gives half-maximal velocity. As usually defined, the Vmax is the top rate of the reaction or transport when substrate is in excess. Consider B1, for which, in data set [2], the Michaelis-Menten constant (Km) stood at 149.3 ± 24.2 µM and the maximum rate (Vmax) turned out to be 1.51e-05 ± 1e-06 µmol/min/mg.
